Experiment [1] deals with T1, EGFR (UniProt P00533 25-1210, limits assumed).
T1 construct: whole, on cells; the cell lines are human tumor lines
Put plainly: flow cytometry, serial dilution on SKBR-3 cells (EGFR-expressing), PE anti-human Fc detection. The method, then:
(§1) Binding analysis of the trivalent, bispecific antibodies was performed by flow cytometry using tumor cell lines with different EGFR-expression levels (FIG. 20) (Table 12). Adherent cells were washed with PBS and shortly trypsinized at 37° C. Trypsin was quenched with FCS-containing medium and removed by centrifugation (500×g, 5 min.). Target cells (FaDu, LIM1215, SKBR-3, T-47-D, MCF-7 and Jurkat cells) at 1×10⁵ cells/well were incubated with a serial dilution of trivalent, bispecific antibodies for 1 h at 4° C. After removing excess of recombinant protein by washing with PBA (PBS, 2% FBS, and 0.02% sodium azide), bound protein was detected using PE-conjugated anti-human Fc mAb (Jackson ImmunoResearch Laboratories Inc). Fluorescence was measured using MACSquant VYB (Miltenyi Biotec) and data were analyzed using FlowJo (Tree Star). Relative median fluorescence intensities (MFI) were calculated as followed: relative MFI=((MFIₛₐₘₚₗₑ-(MFIdetection-MFIcells))/MFIcells).
On the technique in general: In flow cytometry, cells or beads pass a laser one at a time.

For experiment [2], the target named is T1, EGFR. In words: flow cytometry, serial dilution on FaDu cells (EGFR-expressing), PE anti-human Fc detection. The method, then:
as §1

The target of experiment [3] is T1, EGFR. Put plainly: cell-based or functional assay.
Experiment [4] concerns the target T1, EGFR. Put plainly: flow cytometry, serial dilution on LIM1215 cells (EGFR-expressing), PE anti-human Fc detection. On the procedure:
as §1

Experiment [5] has as its target T1, EGFR. In words: flow cytometry, serial dilution on T-47-D cells (EGFR-expressing), PE anti-human Fc detection. On the procedure:
as §1

Experiment [6] concerns the target T1, EGFR. In words: flow cytometry, serial dilution on MCF-7 cells (EGFR-expressing), PE anti-human Fc detection. The method, then:
as §1

The target in experiment [7] is T2, CD3 (UniProt P07766 23-207).
T2 construct: whole, on cells; on cells it stands in the TCR/CD3 complex; also called CD3 on Jurkat cells
In words: flow cytometry, serial dilution on Jurkat cells (CD3-expressing), PE anti-human Fc detection. The method, then: as §1

Experiment [8] deals with T2, CD3. The description is as above. On the procedure:
(§2) Binding of trivalent, bispecific fusion proteins to CEA-expressing (LIM1215) and CD3-expressing (Jurkat) cell lines was analyzed by flow cytometry. 2×10⁵ cells/well were incubated with a serial dilution of trivalent, bispecific antibodies for 1 h at 4° C. followed by detection using a PE-conjugated anti-human Fc antibody (Jackson ImmunoResearch Laboratories Inc). […] Regarding the CEA-expressing cell line LIM1215, the trivalent, bispecific antibodies bound with EC₅₀ values in the nanomolar range (FIG. 16A) (Table 9).
The source holds these as a separate data set.

Experiment [9] deals with T3, CEA (UniProt P06731 35-685).
T3 sequence (looked up): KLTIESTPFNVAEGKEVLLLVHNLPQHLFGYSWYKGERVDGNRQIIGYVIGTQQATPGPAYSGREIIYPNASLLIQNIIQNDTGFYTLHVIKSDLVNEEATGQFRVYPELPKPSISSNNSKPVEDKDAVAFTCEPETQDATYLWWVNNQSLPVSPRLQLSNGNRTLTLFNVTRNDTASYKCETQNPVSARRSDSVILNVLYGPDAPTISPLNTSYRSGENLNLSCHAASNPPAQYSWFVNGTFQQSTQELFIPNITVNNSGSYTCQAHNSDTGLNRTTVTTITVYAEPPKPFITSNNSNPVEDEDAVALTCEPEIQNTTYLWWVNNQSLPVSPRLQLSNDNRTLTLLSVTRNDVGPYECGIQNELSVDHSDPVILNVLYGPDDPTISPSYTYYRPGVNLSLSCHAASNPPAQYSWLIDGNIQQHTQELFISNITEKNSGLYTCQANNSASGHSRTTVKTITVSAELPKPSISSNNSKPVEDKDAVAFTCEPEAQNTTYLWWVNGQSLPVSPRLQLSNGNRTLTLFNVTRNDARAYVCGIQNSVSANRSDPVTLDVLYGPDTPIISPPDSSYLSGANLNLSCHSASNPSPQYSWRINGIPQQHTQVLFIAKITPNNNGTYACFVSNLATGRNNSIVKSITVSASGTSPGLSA
In words: cell-based or functional assay.

For experiment [10], the target named is T3, CEA. Put plainly: flow cytometry, serial dilution on LIM1215 cells (CEA-expressing), PE anti-human Fc detection. The method, then: as §2
The target of experiment [11] is T3, CEA. Put plainly: cell-based or functional assay. The source holds these as a separate data set.

Like-named read-outs stand apart in the source and are kept apart here.

Data on 3 molecules can be found in patent publication US20220396635A1 (UNIVERSIT T STUTTGART, published 2022).

B1: scDb/scFv-Fc (1-2)+1, trivalent bispecific anti-EGFRxanti-CD3 (bispecific antibody)
chain 1: EVQLVESGGGLVQPGGSLRLSCAASGFSLTNYGVHWVRQAPGKGLEWLGVIWSGGNTDYNTPFTSRFTISRDNSKNTLYLQMNSLRAEDTAVYYCARALTYYDYEFAYWGQGTTVTVSSGGGGSDIQMTQSPSSLSASVGDRVTITCRASQDIRNYLNWYQQKPGKAPKLLIYYTSRLHSGVPSRFSGSGSGTDFTFTISSLQPEDIATYYCQQGNTLPWTFGQGTKLEIKRGGGGSGGGGSGGGGSQVQLVQSGAEVKKPGSSVKVSCKASGGTFSGYTMNWVRQAPGQGLEWMGLINPYKGVSTYNGKFKDRVTITADKSTSTAYMELSSLRSEDTAVYYCARSGYYGDSDWYFDVWGQGTLVTVSSGGGGSDIQLTQSPSFLSASVGDRVTITCRASQSIGTNIHWYQQKPGKAPKLLIKYASESISGVPSRFSGSGSGTEFTLTISSLQPEDFATYYCQQNNNWPTTFGAGTKLEIKRAAADKTHTCPPCPAPPVAGPSVFLFPPKPKDTLMISRTPEVTCVVVDVSHEDPEVKFNWYVDGVEVHNAKTKPREEQYNSTYRVVSVLTVLHQDWLNGKEYKCKVSNKGLPSSIEKTISKAKGQPREPQVCTLPPSRDELTKNQVSLSCAVKGFYPSDIAVEWESNGQPENNYKTTPPVLDSDGSFFLVSKLTVDKSRWQQGNVFSCSVMHEALHNHYTQKSLSLSPGK
chain 2: EVQLVESGGGLVQPGGSLRLSCAASGFSLTNYGVHWVRQAPGKGLEWLGVIWSGGNTDYNTPFTSRFTISRDNSKNTLYLQMNSLRAEDTAVYYCARALTYYDYEFAYWGQGTTVTVSSGGGGSGGGGSGGGGSDIQLTQSPSFLSASVGDRVTITCRASQSIGTNIHWYQQKPGKAPKLLIKYASESISGVPSRFSGSGSGTEFTLTISSLQPEDFATYYCQQNNNWPTTFGAGTKLEIKRAAADKTHTCPPCPAPPVAGPSVFLFPPKPKDTLMISRTPEVTCVVVDVSHEDPEVKFNWYVDGVEVHNAKTKPREEQYNSTYRVVSVLTVLHQDWLNGKEYKCKVSNKGLPSSIEKTISKAKGQPREPQVYTLPPCRDELTKNQVSLWCLVKGFYPSDIAVEWESNGQPENNYKTTPPVLDSDGSFFLYSKLTVDKSRWQQGNVFSCSVMHEALHNHYTQKSLSLSPGK
notes: also called scDbhu225xhuU3-Fc(hole)Δab + scFvhu225-Fc(knob)Δab
With B1, the EC50 was 0.09 nM in [1]; 1.1 nM in [2]; 0.2 nM in experiment [4]; 0.02 nM in experiment [5]; 0.03 nM in [6]; 9.6 nM in experiment [7]. Besides, the “EC50 of PBMC cytotoxicity on FaDu cells, E:T 5:1” value in experiment [3] turned out to be 0.026 nM. Further, the “EC50 of PBMC cytotoxicity on SKBR-3 cells, E:T 5:1” value in [3] is 0.126 nM.

B2: scDb/scFv-Fc (2-1)+1, trivalent bispecific anti-CEAxanti-CD3 (bispecific antibody)
chain 1: QVQLVQSGAEVKKPGSSVKVSCKASGGTFSGYTMNWVRQAPGQGLEWMGLINPYKGVSTYNGKFKDRVTITADKSTSTAYMELSSLRSEDTAVYYCARSGYYGDSDWYFDVWGQGTLVTVSSGGGGSDIELTQSPAIMSASPGEKVTITCSASSSVSYMHWFQQKPGTSPKLWIYSTSNLASGVPARFSGSGSGTSYSLTISRMEAEDAATYYCQQRSSYPLTFGAGTKLELKRGGGGSGGGGSGGGGSQVKLQQSGAELVRSGTSVKLSCTASGFNIKDSYMHWLRQGPEQGLEWIGWIDPENGDTEYAPKFQGKATFTTDTSSNTAYLQLSSLTSEDTAVYYCNEGTPTGPYYFDYWGQGTTVTVSSGGGGSDIQMTQSPSSLSASVGDRVTITCRASQDIRNYLNWYQQKPGKAPKLLIYYTSRLHSGVPSRFSGSGSGTDFTFTISSLQPEDIATYYCQQGNTLPWTFGQGTKLEIKRAAADKTHTCPPCPAPPVAGPSVFLFPPKPKDTLMISRTPEVTCVVVDVSHEDPEVKFNWYVDGVEVHNAKTKPREEQYNSTYRVVSVLTVLHQDWLNGKEYKCKVSNKGLPSSIEKTISKAKGQPREPQVCTLPPSRDELTKNQVSLSCAVKGFYPSDIAVEWESNGQPENNYKTTPPVLDSDGSFFLVSKLTVDKSRWQQGNVFSCSVMHEALHNHYTQKSLSLSPGK
chain 2: QVKLQQSGAELVRSGTSVKLSCTASGFNIKDSYMHWLRQGPEQGLEWIGWIDPENGDTEYAPKFQGKATFTTDTSSNTAYLQLSSLTSEDTAVYYCNEGTPTGPYYFDYWGQGTTVTVSSGGGGSGGGGSGGGGSDIELTQSPAIMSASPGEKVTITCSASSSVSYMHWFQQKPGTSPKLWIYSTSNLASGVPARFSGSGSGTSYSLTISRMEAEDAATYYCQQRSSYPLTFGAGTKLELKRAAADKTHTCPPCPAPPVAGPSVFLFPPKPKDTLMISRTPEVTCVVVDVSHEDPEVKFNWYVDGVEVHNAKTKPREEQYNSTYRVVSVLTVLHQDWLNGKEYKCKVSNKGLPSSIEKTISKAKGQPREPQVYTLPPCRDELTKNQVSLWCLVKGFYPSDIAVEWESNGQPENNYKTTPPVLDSDGSFFLYSKLTVDKSRWQQGNVFSCSVMHEALHNHYTQKSLSLSPGK
notes: also called scDbhuU3xCEA-Fc(hole)Δab + scFvCEA-Fc(knob)Δab
In the case of B2, the EC50 was found to be 7.9 nM in [8] and 1.7 nM in [10]. The “EC50 of IL-2 release, PBMCs co-cultured with LIM1215 cells” value in experiment [9] amounted to 1.4 nM. Moreover, the “EC50 of PBMC cytotoxicity on LIM1215 cells, E:T 10:1” value in experiment [11] stood at 0.3 nM.

B3: scDb/Fab-Fc (2-1)+1, trivalent bispecific anti-CEAxanti-CD3 (bispecific antibody, human IgG1, kappa)
chain: B2 chain 1
heavy: QVKLQQSGAELVRSGTSVKLSCTASGFNIKDSYMHWLRQGPEQGLEWIGWIDPENGDTEYAPKFQGKATFTTDTSSNTAYLQLSSLTSEDTAVYYCNEGTPTGPYYFDYWGQGTTVTVSSASTKGPSVFPLAPSSKSTSGGTAALGCLVKDYFPEPVTVSWNSGALTSGVHTFPAVLQSSGLYSLSSVVTVPSSSLGTQTYICNVNHKPSNTKVDKKVEPKSCDKTHTCPPCPAPPVAGPSVFLFPPKPKDTLMISRTPEVTCVVVDVSHEDPEVKFNWYVDGVEVHNAKTKPREEQYNSTYRVVSVLTVLHQDWLNGKEYKCKVSNKGLPSSIEKTISKAKGQPREPQVYTLPPCRDELTKNQVSLWCLVKGFYPSDIAVEWESNGQPENNYKTTPPVLDSDGSFFLYSKLTVDKSRWQQGNVFSCSVMHEALHNHYTQKSLSLSPGK
light: DIELTQSPAIMSASPGEKVTITCSASSSVSYMHWFQQKPGTSPKLWIYSTSNLASGVPARFSGSGSGTSYSLTISRMEAEDAATYYCQQRSSYPLTFGAGTKLELKRRTVAAPSVFIFPPSDEQLKSGTASVVCLLNNFYPREAKVQWKVDNALQSGNSQESVTEQDSKDSTYSLSSTLTLSKADYEKHKVYACEVTHQGLSSPVTKSFNRGEC
notes: also called scDbhuU3xCEA-Fc(hole)Δab + VHCEA-CH1-Fc(knob)Δab + VLCEA-CLκ
For B3, the EC50 in experiment [8] stood at 6.1 nM; in [10] it was 2.1 nM. The “EC50 of IL-2 release, PBMCs co-cultured with LIM1215 cells” value in experiment [9] is 3.5 nM. In experiment [11], the “EC50 of PBMC cytotoxicity on LIM1215 cells, E:T 10:1” value came out at 1.2 nM.

What is called EC50 is the concentration giving half of the maximal effect. Lower therefore signals an effect from little substance.
